According to US20250346643A1, “TROPOMYOSIN KINASE RECEPTOR (TRK) LIGANDS AS THERAPEUTICS TO SUPPORT LIVER REGENERATION” (Vanderbilt University, priority 2024, published 2025):

Tested on: primary mouse hepatocytes
Assay: Cell proliferation assay (CellTiter-Glo) in primary mouse hepatocytes
Assay type: cell-based
Conditions: for increase of primary hepatocyte proliferation: HGF 5 ng/ml, serum-free medium (FIG. 9M); for cell proliferation, comparison of NTF3, HGF, BDNF and NAS: BDNF and HGF 20 ng/ml, NAS 500 nM (FIG. 16E)
Experimental: Primary hepatocyte isolation. Pdgfrb-GFP-negative or H-2Kd mice older than 4 months were anesthetized and cannulated via the portal vein. Livers were perfused with about 25 ml of pre-warmed Liver Perfusion Medium (Gibco, Waltham, MA; 17707-038) followed by about 50 ml Liver Digestion Medium (Gibco, Waltham, MA; 17703-034). Liver capsule was gently teased apart with tweezers and hepatocytes released. Cells were taken up in Hepatocyte Wash Buffer (Gibco, Waltham, MA; 17704-024) and filtered through 100 μm mesh. Cells were then centrifuged for 2 min at 100 g, 4° C. and cell pellet resuspended in ice cold 10 ml DMEM (Gibco, Waltham, MA; 11885-084)/5% FBS. 10 ml of ice cold 100% Percoll®/PBS (GE HealthCare, Chicago, IL; GE17-0891-01) was added for gradient purification and cells centrifuged for 10 min at 200 g, 4° C. Cell pellet was resuspended with 20 ml DMEM/5% FBS and centrifuged for 2 min at 100 g, 4° C. 1-2×10^3 hepatocytes were plated on collagen-coated 96-well plates in DMEM/5% FBS/Pen/Strep. Rat tail collagen I (Gibco, Waltham, MA; A1048301) was used for coating. Cell culture media was changed 3 hours after plating with either serum-free William's E media (Gibco, Waltham, MA) containing Pen/Strep (Gibco, Waltham, MA) or DMEM/5% FBS/Pen/Strep. NTF3 (STEMCELL technologies, Vancouver, Canada) was added 1 day after plating at a final concentration of 20 ng/ml and primary hepatocytes cultured for 3 days with NTF3 until analysis.
Cell proliferation assays. Primary mouse hepatocytes, HepG2 or AML 12 cells were grown in opaque-walled 96-well plates. NTF3 (final concentration 20 ng/ml) (STEMCELL Technologies, Vancouver, Canada; cat. 78074) and/or Loxo-195 (final concentration 5 nM) (Selleckchem, Houston, TX; S8636) were added into complete growth media without L-glutamine. Primary mouse hepatocytes were also grown in serum-free William's E media without supplements. Cells were analyzed by CellTiter-Glo® (Promega G7570, Madison, WI) which detects the number of viable cells on day 0 to day 5 by on detection systems GloMax® (Promega) or Bioteck Synergy H1 (Agilent, Santa Clara, CA). Mouse recombinant HGF (Abcam, Cambridge, UK; ab281797) was added to cell culture media at a final concentration 5 ng/ml. TRKB inhibitor ANA-12 (Selleckchem, Houston, TX; S7745) was diluted in DMSO (10 mM stock solution) and added to cell culture media at a final concentration of 10 nM.
Primary mouse hepatocyte isolation. Mice were anesthetized and cannulated via the portal vein. Livers were perfused with ˜25 ml of prewarmed liver perfusion medium (Gibco, Waltham, MA; 17707-038) followed by ˜50 ml of liver digestion medium (Gibco, Waltham, MA; 17703-034). The liver capsule was gently teased apart with tweezers, and hepatocytes were released. Cells were taken up in Hepatocyte Wash Buffer (Gibco, Waltham, MA; 17704-024) and filtered through a 100-μm mesh. Cells were then centrifuged for 2 min at 100 g, 4° C., and the cell pellet was resuspended in 10 ml of ice-cold DMEM (Gibco, Waltham, MA; 11885-084)/5% FBS. […] of ice-cold 100% Percoll®/PBS (GE HealthCare, Chicago, IL; GE17-0891-01) were added for gradient purification, and cells were centrifuged for 10 min at 200 g, 4° C. The cell pellet was resuspended with 20 ml of DMEM/5% FBS and centrifuged for 2 min at 100 g, 4° C. A total of 1×10^3 to 2×10^3 hepatocytes were plated on collagen-coated 96-well plates in DMEM/5% FBS/Pen/Strep. Rat tail collagen I (Gibco, Waltham, MA; A1048301) was used for coating. Cell culture media were changed 3 hours after plating with either serum-free William's E media (Gibco, Waltham, MA) containing Pen/Strep (Gibco, Waltham, MA) or DMEM/5% FBS/Pen/Strep. […]

Row | Molecule | synergism with HGF on primary hepatocyte proliferation (NTF3 20 ng/ml + HGF 5 ng/ml, serum-free medium (FIG. 9N)) | increase of primary hepatocyte proliferation (NTF3 20 ng/ml) [fold] | cell proliferation vs control-treated hepatocytes (NTF3 20 ng/ml, serum-free and serum-containing media (FIG. 8F, 9D)) | cell proliferation (BDNF 20 ng/ml (FIG. 16C)) | cell proliferation, comparison of NTF3, HGF, BDNF and NAS
1 | NTF3: neurotrophin-3, recombinant protein; HSC-derived hepatocyte mitogen, ligand of TRKA, TRKB, TRKC | no synergistic effects | 1.5 | significantly higher |  | 
2 | BDNF: brain-derived neurotrophic factor, neurotrophin specific for TrkB (protein) HSDPARRGELSVCDSISEWVTAADKKTAVDMSGGTVTVLEKVPVSKGQLKQYFYETKCNPMGYTKEGCRGIDKRHWNSQCRTTQSYVRALTMDSKKRIGWRFIRIDTSCVCTLTIKRGR |  |  |  | significantly induced proliferation | induce proliferation to a similar extent
3 | HGF: hepatocyte growth factor, complete hepatocyte mitogen used as comparator (protein, UniProt Q08048 33-495; Q08048 496-728, looked up) Hepatocyte growth factor …: QKKRRNTLHEFKKSAKTTLTKEDPLLKIKTKKVNSADECANRCIRNRGFTFTCKAFVFDKSRKRCYWYPFNSMSSGVKKGFGHEFDLYENKDYIRNCIIGKGGSYKGTVSITKSGIKCQPWNSMIPHEHSFLPSSYRGKDLQENYCRNPRGEEGGPWCFTSNPEVRYEVCDIPQCSEVECMTCNGESYRGPMDHTESGKTCQRWDQQTPHRHKFLPERYPDKGFDDNYCRNPDGKPRPWCYTLDPDTPWEYCAIKTCAHSAVNETDVPMETTECIQGQGEGYRGTSNTIWNGIPCQRWDSQYPHKHDITPENFKCKDLRENYCRNPDGAESPWCFTTDPNIRVGYCSQIPKCDVSSGQDCYRGNGKNYMGNLSKTRSGLTCSMWDKNMEDLHRHIFWEPDASKLNKNYCRNPDDDAHGPWCYTGNPLIPWDYCPISRCEGDTTPTIVNLDHPVISCAKTKQLR Hepatocyte growth factor beta …: VVNGIPTQTTVGWMVSLKYRNKHICGGSLIKESWVLTARQCFPARNKDLKDYEAWLGIHDVHERGEEKRKQILNISQLVYGPEGSDLVLLKLARPAILDNFVSTIDLPSYGCTIPEKTTCSIYGWGYTGLINADGLLRVAHLYIMGNEKCSQHHQGKVTLNESELCAGAEKIGSGPCEGDYGGPLICEQHKMRMVLGVIVPGRGCAIPNRPGIFVRVAYYAKWIHKVILTYKL |  | 2.6 |  |  | more potent
